Tests used:
[1] = biological target: His6-tagged FGF2 (Fibroblast Growth Factor 2, 18 kDa isoform), wild type, P09038-2; test: AlphaScreen; details: His-FGF2 and GST-α1-subCD3 variants cross-titrated from 500 to 8 nM in PBS, 0.1% (w per v) BSA, 0.05% (w per v) Tween 20; selected concentration pairs …; parent: est. 100; read off a plot
[2] = biological target: α1-subCD3 as used in cross-linking and NMR experiments (migrates at 27 kDa) (human) (UniProt P05023); test: cross-linking; BMOE (1:1 to protein) or DSG (4:1) at 25 °C in HK buffer (25 mM Hepes pH 7.4, 150 mM KCl); single proteins 10 µM, mixtures 20 µM total at ratios 1:1, 1:2, 2:1; SDS-PAGE with Coomassie staining or western blot

percent of parent [1] [%]	stoichiometry N [2]	Substance
60		GST-α1-subCD3, small sub-domain of loop 3 of the cytoplasmic domain of α1, P05023 D560N
100		GST-α1-subCD3, small sub-domain of loop 3 of the cytoplasmic domain of α1 (from UniProt P05023) K524E; E525R
110		GST-α1-subCD3, small sub-domain of loop 3 of the cytoplasmic domain of α1, P05023 K524M; E525Q; E498Q

More lines, now with the values behind:

Substance	percent of parent [1] [%]	stoichiometry N [2]
GST-α1-subCD3, small sub-domain of loop 3 of the cytoplasmic domain of α1 (from UniProt P05023) K524M; E525Q	100	
His6-tagged FGF2 (Fibroblast Growth Factor 2, 18 kDa isoform), wild type (from UniProt P09038-2 1-155) (natural protein)		1
